From the DeepSol protein solubility set

Test: soluble on expression in E. coli; label from the status in PepcDB or PDB records
In the case of “MITLTGHTLTIEEMKRLLLEGEGVTACPTSMQKVAECREVVEKIVENGKVVYGITTGFGKFSDVLIQKDDVKALQHNLIQSHACGIGDPFPEEVSRGMLILRANTMLKGVSGVRPLVVNMLLEFVNRKIHPVVPQQGSLGASGDLAPLSHLALILLGEGEVFYKGKRVHAMVALTEEGLEPIELEAKEGLALINGTQAMTAQGVLSYIEAEATAYQAELIASMTIEGLQGIIDAFDENVHKARGYKEQVEVASRIRDILHDSKLTTKQGELRVQDAYSLRCIPQVHGASWQVLNYVKEKLEIEMNAATDNPLIFDGGEKVISGGNFHGQPIAFAMDFLKVGMAELANISERRIERLVNPQLNDLPPFLSPEPGLQSGAMIMQYAAASLVSENKTLAHPASVDSIPSSANQEDHVSMGTIASRHAHQIIQNVRRVLSIEMICAMQAAEYRGIENMSTVTKSFYHQGRQQVPSITNDRIFSTDIENITHWLKTNYSIKERLDVNAAL”, the “soluble on expression in E. coli” value is reported as “not soluble”.
With “MRPQQLHATEITSSGFRLAWPPLLTADSGYYVLELVPSAQPGAARRQQLPGNATDWIWAGLDPDTDYDVALVPESNVRLLRPQILRVRTRPGEAGPGASGPESGAGPAPTQLAALPAPEEAGPERIVISHARPRSLRVSWAPALGSAAALGYHVQFGPLRGGEAQRVEVPAGRNCTTLQGLAPGTAYLVTVTAAFRSGRESALSAKACTPDGPRPRPRPVPRAPTPGTASREP” the “soluble on expression in E. coli” value was “soluble”.
In the case of “MGSDKIHHHHHHMLYPVKLLKDLVQIKTANPPGSEYESISFYLKDLFNDLGFQIQLIEIPEEYMDKYYIYSPSHKGNKRIIVIAKNSPNPILHFNFHYDVVPPGDGWLTNPFELKVVDNKAYGRGTSDMKGSIVSLYLALSRFNDLPIEIVFVPDEESGGIGTKYLTEEIRIAPSTAIFGEPSFPNVYIGHLGIVRGIIKIFGKQAHASNPKDGINAFLLASKLALKLQEKLGNEIVNLGGYTLNPTNNDGIVPGFFAFSYYRAIPPHDNRTPEFDKNVIDTTAREVGIEYNFEIKSFISGSVSNPDSSVAKAFKFCITSTLNVVPKELISNIRYDAVFYKNLDSINFGPGSLDQAHVPNEYVELDNIEKTIVIYECVMKRIYFNNYR”, the “soluble on expression in E. coli” value is reported as “not soluble”.
With “MAARKLIARINPTNSALFVCDLQEKFASNIKYFPEIITTSRRLIDAARILSIPTIVTEQYPKGLGHTVPTLKEGLAENTPIFDKTKFSMCIPPTEDTLKKVQNVILVGIEAHVCVLQTTYDLLERGLNVHVVVDAVSSRSHTDRHFAFKQMEQAGAILTTSEATILGLVGGSDHPKFKEVQKLILTSAPDTGLVPLSKL” the “soluble on expression in E. coli” value was “soluble”.
In the case of “MKSFQLVATAASGLEAIVGKEVARLGYDPKVENGKVYFEGDLSAIARANLWLRVADRVKIVVGVFKATTFDELFEKTKALPWEDYLPLDAQFPVAGKSVKSTLYSVPDCQAIVKKAIVNRVSEKYRRSGRLMETGALFKLEVSILKDEVTLTIDTSGAGLHKRGYRLAQGSAPIKETMAAALVLLTSWHPDRPFYDPVCGSGTIPIEAALIGQNIAPGFNREFVSETWDWMPKQVWADARQEAEDLANYDQPLNIIGGDIDARLIEIAKQNAVEAGLGDLITFRQLQVADFQTEDEYGVVVANPPYGERLEDEEAVRQLYREMGIVYKRMPTWSVYVLTSYELFEEVYGKKATKKRKLYNGYLRTDLYQYWGPRKPRPKKED”, the “soluble on expression in E. coli” value is reported as “soluble”.
For “MSLNEFPSRPIKLVVPYPAGGTLDIVGRNIAKMAEASLGEPIVADNVPGASGVIAHSQIARAPADGYTIGMSGLSPLVLAPHQYKNLPYSPLKDLSYVACFGETPLVLNVAISLPVKTVQELVAYAKANPGKLNYGSAGIGNASYLAAALFARQAGIEISHVPYKGNAPAMIDLVGGQIPILFDPPQTTLPQAATGKVRPLAVTSSQRFPGLPTLPTIAEAGWANYEFSIWYAMVAPAGVTLPPKNVSLAEWFNASKENGNDEDSAGALHAGIQAAARATAGTTPAARPCSVREGHHHHHH”, the “soluble on expression in E. coli” value was “not soluble”.
With “MAHHHHHHMELPFQWDDGNFISPFLTSGDDTLRVLAAWLNDSPLLRFQHGGALRLTDLGCGDGSALLSLSAGLFTLWGASGCRDVSPLQLTAVGLDLDEELILAARRRAEAIIVPPPHRLHCVFETVDVRQLDAAQYFPLSESSRHVLFVYLLPEGLEAIREKLLEIISRVALLVSNRWEVPFLARWKRVKLQNLHLYQYVGDGAN” the “soluble on expression in E. coli” value was “not soluble”.
With “MARDRNLFKMLVNRLLDRLARLPVGAELGSEGELAAELQASRTTVRAVLTHLAEAGLLSWEGRRKVVLRAPSPSDRFDEGETRPRQELVEEPFLAWVLQGDLPPGTLLHESDLARRLGVPVATVREFLIRFEPFGLIEKQPNRHWVLKGFTRAFAEEMFAVREMFERHALRGLLAATAPGGPLRADLESLRAEHEALSAGPEEELTAFPALDARFHRLLCRAAHNRFILDFSRTISIIVHFHYRWNKRDELRRNRAALNEHLAIVEAVLAGDAPRAAAALDAHLATAYRTLMTSVTWADA” the “soluble on expression in E. coli” value was “not soluble”.
With “MGSDKIHHHHHHMRYVIVGSGPAGLNAIEAIREVDKEGEILLITAEKYVGYSRPLITYLLGRKVTEEKMYYRTEDYLREMRVDIKPATRVEKVIPEEKTVVTDSGEEIRYDKLLIATGGKPFVPNIEGLTGKKGVFTFTTWEDEEKVEKYIEENDVKEAVVLGGGLIGLKTTEALMELGVKVTIVELADRILSVTFDRKASEIITEALKKEGCSVITNDTVVKVNGDDTVSSVVLKSGKEIPTKLLVIAIGVKPNVEFLKDSGIEINRGIVVNEKMETNVEGVYAAGDCTEFYDLIDGQRKTIAIWPVAVAQGRVAGYNMAGKNVRYPGGIPMNSVELAGIPTISVGHSNVEDGGYEILTFEEGNTYKKMVLKDNRLVGAILVNDIDRAGIYTGLILQKLDVSSFKDRLLDENFGLVYLPKEFRKKMLEGEIKIWLE” the “soluble on expression in E. coli” value was “not soluble”.
With “MDRTTPWQQQPIRYSADLEKPSPREQADIEKIMAKLLKNNERAYDKYKHGLRDAHAKSHAILRGELIVNEGLPPELAQGLFAEPRTYPVIARLSSTSGVRRSDKTRGVRGLGLKVLGVQGEKILPDDSSTNQDFVMVTHEDFLFADAHAYAGLGMITASLLARLSDQALWLGSGLLDLVSKAGIKLPDNLMVFVAPNRPILGLEFFSSAPFRHGDHVAKYRFAPASENVKALSGQLLPRNPAPEQHRDMIAEFFADQTAEFDFSAQLCTDPVAMPIEDAGKNWDKSISPYVSVAKIVFGPQNPYSALRRAYGDDVLAFNSWRGLAEHRPLGSINRLKKTVYESSADYRHRVNRIDRHEPVDISELPDLEHHHHHH” the “soluble on expression in E. coli” value was “soluble”.
With “MLFFLIFLGLMATASAKAGRCNEGDQDAHFDSNKFWKCEGGRWIVVTCQINYFYDATTGFCYLSRFPTTRPYPPPFPTRPRPTQGHRCYPGTRIPYPHDHTMFLECSTDGTEYIKRYCQPDAVFVQRENMCVAIQTTYRPTRTWPTTTTTPYYGACKESAGHDGYKPDVYNCKNFYQCASGLWTQRSCGEGTIWDQHKLTCDHNRGQCRPTSPTVQPTYQPTWRPTAYPPNEVKK” the “soluble on expression in E. coli” value was “soluble”.
With “MEYKLHNGSGGLCCKGCSRQDKKLNTYDWLADIPGNAEECDMVEVQFKNTRKGYYRNSNKIKLEKGDIVAVEAAPGHDIGVVTLTGRLVPLQMKKANFKTDVEIKRIYRKAKPVDMEKFNEAKAKEHATMIRARQIALNLNLDMKIGDVEYQGDGNKAIFYYIADERVDFRQLIKVLAEAFRVRIEMKQIGARQEAGRIGGIGPCGRELCCATWMTSFVSVSTSAARFQDISLNPQKLAGQCAKLKCCLNYEVDCYVEAQKRLPSKEIELETKDGTFYFFKADILSNHVSYSTDKNFPANLVTISGKRAFEVIAMNKKGMKPDSLLEAEVKQESKKPIDLLEQESLTRFDRNRNNKDGNNGNRNKKKRKGNNDNRPQAQAESGNRPQQPQRGENENRPQPSENGNRGERGDRENRPRNNNNNNRNRGQNQGRNNENRRPERGQNQERPQNPNRPQNQERSQNQERPVNQERNQERNQERPQNRERQPKQERPQNQERPQEQGRQPNQERIPRPERNSNQEKPQNNEKPAQE” the “soluble on expression in E. coli” value was “not soluble”.
For “RIAISNSNRTRSVPSLTTIWSISPTPNCSIYETQDANLFLCLTKNGAHVLGTITIKGLKGALREMHDNALSLKLPFDNQGNLLNCALESSTWRYQETNAVASNALTFMPNSTVYPRNKTAHPGNMLIQISPNITFSVVYNEINSGYAFTFKWSAEPGKPFHPPTAVFCYITEQGSHHHHHH”, the “soluble on expression in E. coli” value was “soluble”.
In the case of “MTPSVAQNTKYVNLFIGTSGDNGQVAPGAAAPFGMVCVCPDNDPRSHAGYDYAVTKVSGISVNRLSGVGCSGGGGNLRIRPVAPSQELHIKKSREKATPGYYSTAFTNGIKTELTATNAMAVERYKFPRSLSAALWIDFASTFEDVATCHYKRISETCIEGYVQAKNVCGHGCYKLYFSLNTSQPLEHHHHHH”, the “soluble on expression in E. coli” value is reported as “not soluble”.
For “MSLESIKVGMIGYKFMGKAHSHAYRDLPMFFPDHLRPEMKVICGRNPEGVAQAASQYGWEEYTTNWKDLIRRDDIDLIDINAPSDVHKEITLAAAQAGKHIFCEKPLALTLQDSRHMLEAVEAAGVKHMVGFNYRFTPAVLLAKKLIAEGRLGDIYHFRAWFLQDWIVAPDFPLVWRLQKDIAGSGAHGDLGAHLIDMAHFLIGDITEVIGMNETFIKERPLPTEMTGLSGRGSNDHTVPKGPVTVDDATLFMARFANGALGSFEATRFATGHRSTNSFEINGSKGSVIFDFERLNELQVYFTDDQDDVQGFRRVLATDGAHAYSDRWWPAGHTIGYEHTFIHEIAELMESLQEGRQPVPNFKDGVKCQQVLEAVDLSIAKREWIQVSEGHHHHHH”, the “soluble on expression in E. coli” value was “soluble”.
For “GFGCPGNQLKCNNHCKSISCRAGYCDAATLWLRCTCTDCNGKK”, the “soluble on expression in E. coli” value was “soluble”.
For “MGSDKIHHHHHHMPSVVGHPQGNIEAIAFVIKFLEGLGFDIRITDIEKTEQPTIIAHYPGRLSDNKIVIYGHYDVAPVKELNSWVSEEAFTLENINGRLYGRGIADNKGPLMARMIALKSLILSDKAIPEILWLIQGEEEITQGDRVAHDIFKDEIPAFGAPVYIEETGFNDLDSNTQIAFLWSPDKSDSELIPWHSLLESSLDSPRIEYRHLNKLNGIKACPLLYNLPKNAVYMGFGPNDRLHFIHRDNESLNENKLLKHQQQFEKFLANYALYNDES”, the “soluble on expression in E. coli” value was “not soluble”.
For “MLHILCQGTPFEIGYEHGSAAKAVIARSIDFAVDLIRGKTKKTDEELKQVLSQLGRVIEERWPKYYEEIRGIAKGAERDVSEIVMLNTRTEFAYGLKAARDGATTAYCQLPNGALQGQNWDFFSATKENLIRLTIRQAGLPTIKFITEAGIIGKVGFNSAGVAVNYNALHLQGLRPTGVPSHIALRIALESTSPSQAYDRIVEQGGMAASAFIMVGNGHEAFGLEFSPTSIRKQVLDANGRMVHTNHCLLQHGKNEKELDPLPDSWNRHQRMEFLLDGFDGTKQAFAQLWADEDNYPFSICRAYEEGKSRGATLFNIIYDHARREATVRLGRPTNPDEMFVMRFDEEDERSALNARL”, the “soluble on expression in E. coli” value was “soluble”.
In the case of “MMEDVGKEMSKIIQKRDINERYEELVNEVLKDQDVQAFIQANRERLTDEDIRKSYAKLYEFVQEKKKFQVNDPAMIAPGYEPRLMLNFHYIDVTYVPTADLIARQKEEEIRNRVRAMDMPKDVREANLRDFDPSSQGRAKALAEAMQFLREYPATPKEFHKGLYLQGPFGVGKSFLLGAMANALAERGFTTTIVHFPTFTVEMKQAIGRDQVGEKLDAVKKSPILMIDDIGAESMTSWIRDDVLSVILQYRMQEQLVTFFSSNLDLKALEEHLTVTQRGEQEPLKARRIMERVRYLSKEITMTGNDRRNG”, the “soluble on expression in E. coli” value is reported as “not soluble”.
